The values below are quoted from earlier work in article PMC7927047.

Data set [1] concerns the target Cbl-b (Type II orientation, R911) (Homo sapiens) (UniProt Q13191). In words: NMR titration.
Data set [2] deals with Cbl-b (Type I orientation, R904) (Homo sapiens) (UniProt Q13191). In words: NMR titration.
Cbl-b (Type I orientation, R904) (Homo sapiens), sequence (Q13191 whole entry): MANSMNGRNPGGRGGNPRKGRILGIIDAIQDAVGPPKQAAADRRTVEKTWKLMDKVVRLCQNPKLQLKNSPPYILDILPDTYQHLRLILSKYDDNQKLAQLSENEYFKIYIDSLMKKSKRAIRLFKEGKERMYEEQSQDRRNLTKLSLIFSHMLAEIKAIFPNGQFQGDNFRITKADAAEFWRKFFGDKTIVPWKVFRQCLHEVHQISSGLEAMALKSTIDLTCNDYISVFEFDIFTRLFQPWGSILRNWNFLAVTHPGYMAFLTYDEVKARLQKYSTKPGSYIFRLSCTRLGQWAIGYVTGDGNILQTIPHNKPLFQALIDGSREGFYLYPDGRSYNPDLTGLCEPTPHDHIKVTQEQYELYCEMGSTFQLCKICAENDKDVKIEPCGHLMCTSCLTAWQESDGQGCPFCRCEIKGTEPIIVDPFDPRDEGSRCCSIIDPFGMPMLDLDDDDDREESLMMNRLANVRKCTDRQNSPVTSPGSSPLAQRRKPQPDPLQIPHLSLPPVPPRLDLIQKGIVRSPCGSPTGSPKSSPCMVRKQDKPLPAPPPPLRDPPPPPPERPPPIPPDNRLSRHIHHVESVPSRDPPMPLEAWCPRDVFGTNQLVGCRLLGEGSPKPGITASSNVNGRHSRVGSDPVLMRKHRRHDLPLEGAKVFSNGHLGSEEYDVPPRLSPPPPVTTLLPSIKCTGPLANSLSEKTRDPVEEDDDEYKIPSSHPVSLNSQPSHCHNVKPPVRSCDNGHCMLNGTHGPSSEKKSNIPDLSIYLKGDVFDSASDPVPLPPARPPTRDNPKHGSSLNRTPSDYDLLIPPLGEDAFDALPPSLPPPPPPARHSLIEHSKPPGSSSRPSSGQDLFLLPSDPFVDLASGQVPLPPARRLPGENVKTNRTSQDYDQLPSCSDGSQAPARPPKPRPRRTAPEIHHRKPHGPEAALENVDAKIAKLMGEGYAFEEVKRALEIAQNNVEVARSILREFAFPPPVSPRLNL

CIN85 SH3, sequence (Q96B97 1-58): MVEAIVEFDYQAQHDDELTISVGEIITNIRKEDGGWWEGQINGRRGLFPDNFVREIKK
Cbl-b (Type II orientation, R911) (Homo sapiens), sequence (Q13191 whole entry): as the sequence (Q13191 whole entry) above

What is called Kd is the constant that tells how readily two partners part at equilibrium. Take CIN85 SH3 (from UniProt Q96B97): the Kd in data set [1] was 2 µM; in data set [2] it was 46.9 µM.
